The data set concerns the molecule itself. Put plainly: native gel or EMSA; Coomassie-stained 16% native gel; dimeric S100B sample.

B1: S100B protein (natural protein, human)
chain: SELEKAMVALIDVFHQYSGREGDKHKLKKSELKELINNELSHFLEEIKEQEVVDKVMETLDNDGDGECDFQEFMAFVAMVTTACHEFFEHE
notes: S100B, Homo sapiens, UniProt P04271; Gene carried in the pETDuet-1 vector; The protein is a homodimer as purified; the monomer was obtained by extensive dialysis against deionized water; also called dimeric S100B; monomeric S100B; source: E. coli BL21-CodonPlus (DE3)-RIL, purified (ammonium sulfate, HiTrap Q XL anion exchange)
Regarding B1, the binding result is “binds”.

(Values after article PMC12445344, “Influence of Calcium Ions on the Membrane Binding of S100B Protein” (Langmuir, 2025).)
